Where “and” joins values, the source holds several entries; their conditions need not be identical. Identical values can stand only once.
B1: Fab fragment of Antibody C (Fab, V domains shown)
VH: DVQLVESGGGVVRPGESLRLSCEASGFTFSSNAMSWVRQAPGKGLEWVAGISSGSDTYYGDSVKGRLTISRDNSKNILYLQMNSLTAEDTAVYYCARETWNHLFDYWGQGTLVTVSS
VL: SYELTQPPSVSVSPGQTARITCSGGSYSSYYYAWYQQKPGQAPVTLIYSDDKRPSNIPERFSGSSSGTTVTLTISGVQAEDEADYYCGGYDQSSYTNPFGGGTKLTVL
B2: Fab fragment of Antibody A (Fab, V domains shown)
VH: DVQLVESGGGVVRPGESLRLSCAASGFSFSSYAMNWVRQAPGEGLEWVSRINSGGGGTDYAESVKGRFTISRDNSENTLYLQMNSLRAEDTAVYYCAKQYDWNSFFDYWGLGALVTVSS
VL: ETVLTQSPATLSVSPGERATLSCRASQTVGSKLAWHQQKPGQAPRLLIYDATNRATGISDRFSGSGSGTDFTLTISSLQTEDSAVYYCQQYYYWPPYRFGGGTKVEIK

Target: Drug A
Assay: cell-based or functional assay

Binder	hemagglutination of Drug A-coated erythrocytes with anti-IgG; molar excess of Fab that prevented it (fold molar excess relative to Drug A)
B1	200 and 400
B2	2500

From patent US20200400662A1
